Key:
[1] = biological target: T1, Ac-GLAR-AMC
T1 chain: GLAR

[2] = biological target: Complement component C9 (human)
[3] = biological target: Complement C3 (human)
[4] = biological target: Complement C5 (human)
[5] = biological target: T2, Ac-RQAR-AMC
T2 chain: RQAR

[6] = biological target: Complement component C7 (human)
[7] = biological target: Complement component C6 (human)
[8] = biological target: T3, Ac-SLGR-AMC
T3 chain: SLGR

[9] = biological target: Complement C1q (human)
[10] = biological target: T4, Complement C2 (human)
T4 chain: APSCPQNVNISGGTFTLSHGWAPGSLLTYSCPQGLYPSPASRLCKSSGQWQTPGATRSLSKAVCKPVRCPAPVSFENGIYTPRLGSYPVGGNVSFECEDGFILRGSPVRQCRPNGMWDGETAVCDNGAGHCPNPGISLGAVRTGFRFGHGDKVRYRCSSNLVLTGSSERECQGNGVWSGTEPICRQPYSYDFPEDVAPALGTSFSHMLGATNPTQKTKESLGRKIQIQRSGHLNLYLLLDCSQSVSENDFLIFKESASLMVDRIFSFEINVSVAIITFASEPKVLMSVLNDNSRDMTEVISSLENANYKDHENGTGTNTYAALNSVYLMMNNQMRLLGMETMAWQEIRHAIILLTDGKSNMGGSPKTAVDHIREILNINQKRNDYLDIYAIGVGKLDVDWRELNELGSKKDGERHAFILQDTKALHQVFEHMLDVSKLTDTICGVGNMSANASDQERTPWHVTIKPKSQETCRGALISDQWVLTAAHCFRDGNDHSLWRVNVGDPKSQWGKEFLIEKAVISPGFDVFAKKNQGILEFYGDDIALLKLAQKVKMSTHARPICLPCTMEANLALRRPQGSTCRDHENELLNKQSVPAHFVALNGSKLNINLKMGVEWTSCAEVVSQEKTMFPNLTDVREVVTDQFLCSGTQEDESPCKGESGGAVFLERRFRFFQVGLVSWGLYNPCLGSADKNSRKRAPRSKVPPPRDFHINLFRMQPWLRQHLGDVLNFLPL

[11] = biological target: T5, Complement C4 (human)
T5 chain 1: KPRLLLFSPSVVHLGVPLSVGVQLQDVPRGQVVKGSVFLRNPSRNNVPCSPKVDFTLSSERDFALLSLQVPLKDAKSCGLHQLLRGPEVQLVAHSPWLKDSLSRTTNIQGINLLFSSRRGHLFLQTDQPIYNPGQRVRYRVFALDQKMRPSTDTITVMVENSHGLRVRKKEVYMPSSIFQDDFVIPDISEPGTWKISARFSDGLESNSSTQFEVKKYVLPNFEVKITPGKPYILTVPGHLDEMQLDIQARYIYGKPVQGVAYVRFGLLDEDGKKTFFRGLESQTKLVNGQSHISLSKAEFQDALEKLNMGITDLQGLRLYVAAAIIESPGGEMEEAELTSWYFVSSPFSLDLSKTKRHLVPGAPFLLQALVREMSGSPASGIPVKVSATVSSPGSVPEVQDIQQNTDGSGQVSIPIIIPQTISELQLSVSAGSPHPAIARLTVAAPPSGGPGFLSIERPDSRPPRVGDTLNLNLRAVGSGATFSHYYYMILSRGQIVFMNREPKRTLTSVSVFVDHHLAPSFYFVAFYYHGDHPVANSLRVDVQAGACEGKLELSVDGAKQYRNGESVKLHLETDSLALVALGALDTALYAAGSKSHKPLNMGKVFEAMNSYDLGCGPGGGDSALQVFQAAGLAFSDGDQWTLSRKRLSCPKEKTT
T5 chain 2: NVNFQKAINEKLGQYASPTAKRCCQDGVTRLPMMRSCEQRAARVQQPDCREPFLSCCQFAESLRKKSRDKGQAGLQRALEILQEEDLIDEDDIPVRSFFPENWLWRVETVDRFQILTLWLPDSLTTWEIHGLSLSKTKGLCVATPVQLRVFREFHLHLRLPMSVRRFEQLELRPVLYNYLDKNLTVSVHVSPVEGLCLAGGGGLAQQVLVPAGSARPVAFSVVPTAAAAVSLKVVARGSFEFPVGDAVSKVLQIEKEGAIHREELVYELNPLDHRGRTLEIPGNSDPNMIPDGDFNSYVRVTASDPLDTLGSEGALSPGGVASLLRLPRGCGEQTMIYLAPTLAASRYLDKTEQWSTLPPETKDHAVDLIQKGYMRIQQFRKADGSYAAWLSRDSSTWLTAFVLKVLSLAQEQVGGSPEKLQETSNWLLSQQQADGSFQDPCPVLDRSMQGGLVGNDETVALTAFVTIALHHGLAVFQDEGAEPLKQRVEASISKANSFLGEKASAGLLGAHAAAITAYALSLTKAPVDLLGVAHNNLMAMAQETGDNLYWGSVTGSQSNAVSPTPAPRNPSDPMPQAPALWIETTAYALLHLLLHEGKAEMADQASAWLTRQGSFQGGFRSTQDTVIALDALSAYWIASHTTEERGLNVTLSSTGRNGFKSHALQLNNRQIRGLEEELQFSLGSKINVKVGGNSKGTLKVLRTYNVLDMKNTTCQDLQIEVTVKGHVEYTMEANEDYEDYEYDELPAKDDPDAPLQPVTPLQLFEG
T5 chain 3: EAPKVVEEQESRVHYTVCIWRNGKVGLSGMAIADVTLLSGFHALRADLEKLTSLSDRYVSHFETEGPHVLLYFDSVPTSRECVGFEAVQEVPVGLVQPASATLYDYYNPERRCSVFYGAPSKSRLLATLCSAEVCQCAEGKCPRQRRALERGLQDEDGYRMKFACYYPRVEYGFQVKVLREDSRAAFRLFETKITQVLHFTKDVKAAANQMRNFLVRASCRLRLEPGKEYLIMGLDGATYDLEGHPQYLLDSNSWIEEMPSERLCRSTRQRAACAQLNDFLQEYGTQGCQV

[12] = biological target: Complement component C8 (human)

Complement C5 (human), sequence (chain, as listed by the source, chain 1 of 2): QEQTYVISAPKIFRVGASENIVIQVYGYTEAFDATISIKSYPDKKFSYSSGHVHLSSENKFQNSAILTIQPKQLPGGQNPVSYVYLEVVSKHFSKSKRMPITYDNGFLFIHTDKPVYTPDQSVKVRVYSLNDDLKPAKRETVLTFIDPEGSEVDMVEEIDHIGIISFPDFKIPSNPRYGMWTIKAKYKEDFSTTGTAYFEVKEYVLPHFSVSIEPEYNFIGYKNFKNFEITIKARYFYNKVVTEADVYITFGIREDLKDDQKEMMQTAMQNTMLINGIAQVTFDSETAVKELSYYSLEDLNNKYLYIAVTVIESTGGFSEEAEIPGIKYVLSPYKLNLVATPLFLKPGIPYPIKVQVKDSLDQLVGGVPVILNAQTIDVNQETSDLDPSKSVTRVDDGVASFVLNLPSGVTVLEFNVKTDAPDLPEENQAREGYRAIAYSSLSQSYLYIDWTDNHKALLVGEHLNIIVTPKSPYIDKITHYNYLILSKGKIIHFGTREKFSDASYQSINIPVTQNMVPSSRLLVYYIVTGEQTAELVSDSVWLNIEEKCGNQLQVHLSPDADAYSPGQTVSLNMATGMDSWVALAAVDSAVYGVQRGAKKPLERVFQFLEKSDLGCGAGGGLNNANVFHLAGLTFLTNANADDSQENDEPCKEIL
Complement C5 (human), sequence (chain, as listed by the source, chain 2 of 2): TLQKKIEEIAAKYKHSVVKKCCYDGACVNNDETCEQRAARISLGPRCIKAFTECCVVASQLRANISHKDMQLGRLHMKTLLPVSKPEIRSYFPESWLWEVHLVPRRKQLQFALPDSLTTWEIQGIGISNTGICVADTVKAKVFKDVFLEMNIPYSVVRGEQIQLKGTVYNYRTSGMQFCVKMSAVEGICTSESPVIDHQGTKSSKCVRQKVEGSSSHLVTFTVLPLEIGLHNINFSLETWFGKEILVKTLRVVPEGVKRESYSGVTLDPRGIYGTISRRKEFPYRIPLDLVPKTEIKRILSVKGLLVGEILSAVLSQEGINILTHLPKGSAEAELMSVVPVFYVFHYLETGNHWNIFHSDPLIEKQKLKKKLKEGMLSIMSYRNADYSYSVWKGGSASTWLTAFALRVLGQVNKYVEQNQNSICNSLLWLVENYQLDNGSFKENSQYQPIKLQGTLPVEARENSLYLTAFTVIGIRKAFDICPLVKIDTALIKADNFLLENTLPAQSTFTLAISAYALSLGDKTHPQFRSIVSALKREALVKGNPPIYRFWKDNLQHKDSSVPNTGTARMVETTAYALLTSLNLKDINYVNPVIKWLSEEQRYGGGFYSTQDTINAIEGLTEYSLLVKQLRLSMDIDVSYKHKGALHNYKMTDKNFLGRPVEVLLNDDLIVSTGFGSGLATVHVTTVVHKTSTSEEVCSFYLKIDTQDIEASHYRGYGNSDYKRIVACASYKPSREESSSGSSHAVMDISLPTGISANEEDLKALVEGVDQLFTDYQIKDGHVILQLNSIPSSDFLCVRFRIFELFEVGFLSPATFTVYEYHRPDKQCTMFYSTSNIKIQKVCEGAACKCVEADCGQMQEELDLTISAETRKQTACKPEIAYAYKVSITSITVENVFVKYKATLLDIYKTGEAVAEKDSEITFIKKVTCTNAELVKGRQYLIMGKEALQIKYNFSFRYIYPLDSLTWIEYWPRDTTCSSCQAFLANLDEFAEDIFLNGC
Complement component C6 (human), sequence (chain, as listed by the source): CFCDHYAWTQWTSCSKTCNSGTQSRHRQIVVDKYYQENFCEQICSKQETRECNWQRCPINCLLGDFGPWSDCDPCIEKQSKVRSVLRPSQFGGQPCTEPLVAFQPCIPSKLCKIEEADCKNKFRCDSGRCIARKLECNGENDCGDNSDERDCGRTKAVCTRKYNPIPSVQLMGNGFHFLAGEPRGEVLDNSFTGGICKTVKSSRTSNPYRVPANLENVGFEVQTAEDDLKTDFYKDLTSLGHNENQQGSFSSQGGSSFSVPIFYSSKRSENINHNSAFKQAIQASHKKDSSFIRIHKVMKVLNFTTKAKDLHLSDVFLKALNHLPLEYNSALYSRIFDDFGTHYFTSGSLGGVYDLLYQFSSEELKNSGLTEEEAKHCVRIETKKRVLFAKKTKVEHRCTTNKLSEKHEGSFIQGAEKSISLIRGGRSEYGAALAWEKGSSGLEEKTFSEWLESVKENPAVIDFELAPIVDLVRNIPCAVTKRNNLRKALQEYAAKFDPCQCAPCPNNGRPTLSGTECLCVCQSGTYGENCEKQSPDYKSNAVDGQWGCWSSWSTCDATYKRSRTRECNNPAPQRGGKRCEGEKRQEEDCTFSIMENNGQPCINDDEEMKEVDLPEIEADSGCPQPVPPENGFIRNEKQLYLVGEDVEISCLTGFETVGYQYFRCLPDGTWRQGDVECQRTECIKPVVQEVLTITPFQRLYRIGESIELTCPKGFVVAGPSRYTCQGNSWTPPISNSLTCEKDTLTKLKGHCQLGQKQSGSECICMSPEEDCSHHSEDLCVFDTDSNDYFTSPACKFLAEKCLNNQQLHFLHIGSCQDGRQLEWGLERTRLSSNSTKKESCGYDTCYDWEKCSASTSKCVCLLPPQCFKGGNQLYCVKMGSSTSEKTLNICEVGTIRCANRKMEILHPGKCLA
Complement component C7 (human), sequence (chain, as listed by the source): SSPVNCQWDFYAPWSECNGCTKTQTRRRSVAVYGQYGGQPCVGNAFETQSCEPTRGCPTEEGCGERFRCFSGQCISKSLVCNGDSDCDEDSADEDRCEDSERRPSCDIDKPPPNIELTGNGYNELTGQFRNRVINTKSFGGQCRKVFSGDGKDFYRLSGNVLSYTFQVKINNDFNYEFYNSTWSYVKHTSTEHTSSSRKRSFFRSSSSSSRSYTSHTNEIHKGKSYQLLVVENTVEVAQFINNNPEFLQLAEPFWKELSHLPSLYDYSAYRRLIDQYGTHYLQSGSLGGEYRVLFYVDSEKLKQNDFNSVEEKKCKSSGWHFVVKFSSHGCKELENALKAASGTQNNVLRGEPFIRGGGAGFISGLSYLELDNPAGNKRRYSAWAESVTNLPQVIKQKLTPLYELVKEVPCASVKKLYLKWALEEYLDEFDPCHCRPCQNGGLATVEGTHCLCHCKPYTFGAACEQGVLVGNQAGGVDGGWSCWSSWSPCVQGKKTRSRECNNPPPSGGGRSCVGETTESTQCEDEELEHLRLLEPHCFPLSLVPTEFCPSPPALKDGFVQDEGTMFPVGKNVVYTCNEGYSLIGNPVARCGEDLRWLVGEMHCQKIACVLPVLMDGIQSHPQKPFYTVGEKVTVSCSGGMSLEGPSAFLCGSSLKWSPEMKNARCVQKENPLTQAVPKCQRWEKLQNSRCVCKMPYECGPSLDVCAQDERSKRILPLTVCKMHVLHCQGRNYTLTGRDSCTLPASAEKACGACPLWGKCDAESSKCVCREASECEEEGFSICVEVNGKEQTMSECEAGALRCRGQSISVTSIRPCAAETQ
Complement component C9 (human), sequence (chain, as listed by the source): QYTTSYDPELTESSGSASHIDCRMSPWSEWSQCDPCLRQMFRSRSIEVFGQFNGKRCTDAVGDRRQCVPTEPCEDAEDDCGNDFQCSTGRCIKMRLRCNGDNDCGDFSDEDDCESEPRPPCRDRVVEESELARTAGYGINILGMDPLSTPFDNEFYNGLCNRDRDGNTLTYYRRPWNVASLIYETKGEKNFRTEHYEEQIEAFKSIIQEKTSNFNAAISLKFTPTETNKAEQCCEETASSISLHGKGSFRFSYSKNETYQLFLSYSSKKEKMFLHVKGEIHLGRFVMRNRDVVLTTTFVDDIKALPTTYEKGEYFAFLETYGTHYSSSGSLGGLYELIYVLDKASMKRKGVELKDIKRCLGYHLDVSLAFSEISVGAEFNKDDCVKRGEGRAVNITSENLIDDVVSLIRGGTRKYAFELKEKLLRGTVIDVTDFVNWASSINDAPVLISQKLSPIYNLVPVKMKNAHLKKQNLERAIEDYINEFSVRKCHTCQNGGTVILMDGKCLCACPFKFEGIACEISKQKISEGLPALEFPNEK

B1: wildtype MT-SP1 protease domain (CB200) (protein)
chain: VVGGTDADEGEWPWQVSLHALGQGHICGASLISPNWLVSAAHCYIDDRGFRYSDPTQWTAFLGLHDQSQRSAPGVQERRLKRIISHPFFNDFTFDYDIALLELEKPAEYSSMVRPICLPDASHVFPAGKAIWVTGWGHTQYGGTGALILQKGEIRVINQTTCENLLPQQITPRMMCVGFLSGGVDSCQGDSGGPLSSVEADGRIFQAGVVSWGDGCAQRNKPGVYTRLPLFRDWIKENTGV
[1]
  kcat/Km (specificity constant), fluorogenic peptide cleavage: 64000 M⁻¹ s⁻¹
[2]
  hemolysis (OD415) by protease-preincubated purified complement protein added back to the corresponding depleted sera: showed no decreased hemolysis as compared to normal sera or the no protease control
[3]
  Fraction of Hemolysis (protease-incubated purified complement protein added back to depleted sera): 0.00834
  cleavage in 90% human plasma by Western blot: none of the tested proteases cleaved C3 in human plasma as compared to the no protease control even at the highest concentration of protease (2000 nM)
  hemolysis (OD415) by protease-preincubated purified complement protein added back to the corresponding depleted sera: showed no decreased hemolysis as compared to normal sera or the no protease control
[4]
  Fraction of Hemolysis (protease-incubated purified complement protein added back to depleted sera): 0.888
  hemolysis (OD415) by protease-preincubated purified complement protein added back to the corresponding depleted sera: showed no decreased hemolysis as compared to normal sera or the no protease control
[5]
  kcat/Km (specificity constant), fluorogenic peptide cleavage: 1.9e+06 M⁻¹ s⁻¹
[6]
  hemolysis (OD415) by protease-preincubated purified complement protein added back to the corresponding depleted sera: showed no decreased hemolysis as compared to normal sera or the no protease control
[7]
  hemolysis (OD415) by protease-preincubated purified complement protein added back to the corresponding depleted sera: showed no decreased hemolysis as compared to normal sera or the no protease control
[8]
  kcat/Km (specificity constant), fluorogenic peptide cleavage: 20000 M⁻¹ s⁻¹
[9]
  hemolysis (OD415) by protease-preincubated purified complement protein added back to the corresponding depleted sera: showed no decreased hemolysis as compared to normal sera or the no protease control
[10]
  Fraction of Hemolysis (protease-incubated purified complement protein added back to depleted sera): 0
  cleavage in 90% human plasma by Western blot: cleaved C2 in human plasma in a dose-dependent manner
  fraction C5b-9 generated, Total Complement System Screen (classical and MBL pathways), 1 uM protease in human plasma: the fraction C5b-9 generated upon complement activation induced by the classical and MBL pathways was almost completely inhibited
  hemolysis (OD415) by protease-preincubated purified complement protein added back to the corresponding depleted sera: resulted in an inhibition of hemolysis as assessed by a reduced OD415 absorbance to levels comparable to the depleted sera control
  kcat/Km (specificity constant) of cleavage of full length C2, in gel kinetics (SDS-PAGE densitometry time course): 19500 M⁻¹ s⁻¹
[11]
  Fraction of Hemolysis (protease-incubated purified complement protein added back to depleted sera): 0.97
  hemolysis (OD415) by protease-preincubated purified complement protein added back to the corresponding depleted sera: showed no decreased hemolysis as compared to normal sera or the no protease control
[12]
  hemolysis (OD415) by protease-preincubated purified complement protein added back to the corresponding depleted sera: showed no decreased hemolysis as compared to normal sera or the no protease control

— US20070093443
